This passage reports Kd results from patent publication US20120213799A1 (published 2012).

The labels stand for the following.
T1: recombinant human FKN (R&D Systems, Catalog No. 362-CX/CF) (UniProt P78423 25-100)
T1 chain: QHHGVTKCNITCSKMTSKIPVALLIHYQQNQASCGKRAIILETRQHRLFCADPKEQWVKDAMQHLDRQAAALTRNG

T2: soluble hFKN-SEAP (extracellular region of human fractalkine conjugated to secreted alkaline phosphatase) (UniProt P78423 25-341)
T2 chain: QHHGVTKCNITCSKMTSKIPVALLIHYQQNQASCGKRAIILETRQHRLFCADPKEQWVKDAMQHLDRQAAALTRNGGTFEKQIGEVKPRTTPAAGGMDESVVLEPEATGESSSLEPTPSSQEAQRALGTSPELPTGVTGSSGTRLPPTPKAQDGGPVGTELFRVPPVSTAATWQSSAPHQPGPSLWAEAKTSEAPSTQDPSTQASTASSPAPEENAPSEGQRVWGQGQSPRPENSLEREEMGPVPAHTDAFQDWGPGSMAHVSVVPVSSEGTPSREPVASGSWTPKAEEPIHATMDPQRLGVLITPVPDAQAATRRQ

B1: mouse anti-hFKN mAb clone 3A5-2 (antibody, V domains shown)
VH: QVQLQQSGPELVKPGASVKMSCKASGYTFTNYYIHWVKQRPGQGLEWIGWIYPGDGSPKFNERFKGKTTLTADKSSNTAYMLLSSLTSEDSAIYFCATGPTDGDYFDYWGQGTTLTVSS
VL: DIQMTQSPASLSASVGETVTITCRASGNIHNFLAWYQQKQGKSPQFLVYNEKTLADGVPSRFSGSGSGTQYSLKINSLQPEDFGIYFCQQFWSTPYTFGGGTKLEIK
B2: mouse-human chimeric 3A5-2 mAb (antibody, V domains shown)
VH: B1 VH
VL: B1 VL
B3: humanized anti-hFKN mAb H3L2-IgG2 (antibody, V domains shown)
VH: QVQLVQSGAEVKKPGASVKVSCKASGYTFTNYYIHWVKQAPGQGLEWIGWIYPGDGSPKFNERFKGRTTLTADKSTNTAYMLLSSLRSDDTAVYFCATGPTDGDYFDYWGQGTTVTVSS
VL: DIQMTQSPSSLSASVGDRVTITCRASGNIHNFLAWYQQKPGKAPKFLVYNEKTLADGVPSRFSGSGSGTQYTLTISSLQPEDFATYFCQQFWSTPYTFGGGTKVEIK
B4: humanized anti-hFKN mAb H3-2L4-IgG2 (antibody, V domains shown)
VH: B3 VH with D89E
VL: B3 VL with F46L, V48I, Q70D
B5: humanized anti-hFKN mAb H3-2L2-IgG2 (antibody, V domains shown)
VH: B3 VH with D89E
VL: B3 VL
B6: humanized anti-hFKN mAb H3-L4-IgG2 (antibody, V domains shown)
VH: B3 VH
VL: B3 VL with F46L, V48I, Q70D
B7: chimeric (antibody, V domains shown)
VH: B1 VH
VL: B1 VL
B8: H3L2 (antibody, V domains shown)
VH: B3 VH
VL: B3 VL
B9: HK2L4 (antibody, V domains shown)
VH: B3 VH with K38R, L70M, K74T, N77S, L82E, D89E, T98R
VL: B3 VL with F46L, V48I, Q70D
B10: H3L4 (antibody, V domains shown)
VH: B3 VH
VL: B3 VL with F46L, V48I, Q70D
B11: H3-2L4 (antibody, V domains shown)
VH: B3 VH with D89E
VL: B3 VL with F46L, V48I, Q70D
B12: H3-2L2 (antibody, V domains shown)
VH: B3 VH with D89E
VL: B3 VL

Where a chain is given by its changes, count along the chain named.

The first test has as its target T1, recombinant human FKN (R&D Systems, …). As to the kind of experiment: BIACORE.
In the case of B1, the Kd stood at 600 pM.

The target of the next test is T2, soluble hFKN-SEAP (extracellular region …). The test is described as follows: BIACORE.
B2 returned a Kd of 7.13 pM. In turn, B3 came in with a Kd of 8.84 pM.

For the molecule B4, the affinity, expressed as Kd, was 5.34 pM. Consider B5, for which binding was put at a Kd of 5.92 pM. Take B6: binding was put at a Kd of 6.43 pM.

The target of another test is cynomolgus FKN-SEAP (human;). The test is described as follows: BIACORE.
In turn, B7 had a Kd of 6.62 pM.

For the molecule B8, the Kd turned out to be 9.62 pM. In turn, B9 returned a Kd of 26 pM. Molecule B10 yielded a Kd of 12 pM. B11 yielded a Kd of 7.71 pM. Regarding B12, the affinity, expressed as Kd, was 6.75 pM.
